From the domain aggregation screens of Martell et al. (2025)

Test: soluble fraction after stress (log2 fold change); higher = more stays soluble; pooled small domains, quantitative proteomics
Conditions: stress: 75 degC
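Note: 20 min heating vs room temperature control held 20 min.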

Row | Sequence | soluble fraction (log2)
1 | HMAKVDIPHEMVDQRIDEIVEEIKMNLESQNMSLDDYLKRMNQTEAQLRANYEATAAEQVRQGLV | 0.858
2 | HMRKYKIKEELPDNIYKIIQDNPGIVQKDIYDILGREYQQNISSYIYSMDKNGVIKRDKHGNSYKLYL | -0.119
3 | HMNPDDEMLLTYLTKLLVDKQFIVNSNDIFEYILRRVDRTYDGIYDIVSKLDVLSLEKKRQLTIPLIKEI | 0.288
4 | HMQRIFIDNHDRILYYSNPAGYIAGKEAVVDTMFQTQELERFLQKQSLSIRWEDGVYDRLLLGQ | -0.0579
5 | HMSTEAVVMSSSVSVKSSPDKASTDLFVLHEGTKVRTVSELGDWREIVIADGKKGWVEARTIET | 0.756
6 | HMNIDEIFLTKNEIYFSFEYQKKSQLDRYSKIISLDHRIDKNTAYAYANKKQFLNFINLNIDYKIIDNSF | -2.87
7 | HMGGFSVTAEAFDGTPEVGKTVGFTAGSTKIKVEDTKGDATFGTILEKETVGFGEGKYTYFYIGL | -0.428
8 | HMPLITAIELDSISARSFQFNTQSGSTYFIEGSTDLKSWDVIAEVKATDSTTTYEDHRKIYHEAYFYRVRL | -1.84
9 | HMPGTEAQDGEVLLDALRRIHPDSSTGTLRRMLTQGRVQVDGTTVHAAKAELTSGQHVEVVAR | 0.136
10 | HMQLEPLVTSVIPVNFAKASDISGTIKGKEVGLLSERGNITAENRTNVLIVKDIRKSVDEINAMVKRLD | 0.0272
11 | HMDAVSYTQFMQDAKAGRIKKVIVHQSGILDVTTTEGRRFNLTSPGDLWMVGDLVKDGVDVVGAP | -0.234
12 | HMGLNVSYRMDGENVVETIIFSGATMIRTVTPTGTMTIKTIENGSTSTAKVNADYSVYKKIYEAQY | -2.69
13 | HMQIKEVDYGTFISMTEDGEIGRVEIQQQENTILFTDEDETAVYKTAMVEDDQLTQRLYDAGISFYGEE | 0.0917
14 | HMELGRQDSAQLGRWAAGILAKNGKKITGRTMEFFLSRTGDDMENISSELEKLISYTLGREVITEEDIEAV | -0.263
15 | HMKIVFGHVKWFDIDKGFGFLVLEDEGGDVLLHANVLKNFGRTSVSEDTKIEFEFLETDKGRQVSTIYNIL | -3.28
16 | HMRRARVAGKGHFTGEDAMAVYRELEALFGETETLYLPGHRPFEAVLSKLALIGVPEKNTVPYTFAFVET | -0.392
17 | HMITIDADTGKRVYTRKEVADLVGASTQSIRLWEDAGAIPASVRDEGGYRYWYEEDLEAIKAYAS | -0.203
18 | HMQFHQDNYALEFIRDLQPVDGAIILSRFKQFDLVELEKAKKIKFSDEHMAWTLYDYDIKKIN | -1.95
19 | HMRPQELSSLNTNQMRLYNSLPEAFITAEAKDIADKLRYSERSLFRFLNESNLFTKTEHGSYAKKA | 0.0879

Row | Sequence | soluble fraction (log2)
20 | HMLNERQKKIIKILKDNKNWMTGKELSEFLNVSDRTIRSDIEYINRYNNALIESNVKNGYHLNFE | -0.233
21 | HMNNESEGAIMLRQYSSLSAYLTKYNIDVNSKKAQQYASSLKLAQEKGSAEGQKYLSSISSELDD | -0.205
22 | HMVIDETVLIDLFERLAEDDRPQRVAFRYILALVLLRKRTLQLIGREDEDDGEIWLLRFKGTDGEPIRV | -0.463
23 | HMVLPELRLQGLPTAVLRLINRATALADDYRRLMEIAEDGRIDEWEAPEFERISENIQRVIAAGFEVL | 0.0637
24 | HMPATTMMVVVDRDLPYGHVLTDRDVRLETRRATSPGASVAFTSIDPVLGQSLTRPLGAGTPVGRADLR | -0.218
25 | HMSVIKERLTEFLTYKGIGQIKFAEAAGLSRGFVNVLGDGISSKSLNKISQAFPELNTLWLTTGEGEML | -1.72
26 | HMIEDMTINIEERLSLNGDIKKSEYILQYIKPDFIRKVILSPELNKGEIYIYDSKKKVMYLPLFDQVSEEI | -0.355
27 | HMFINITAITGNNYNTPDAARNALPNTYNKKIGLVFTYRDLTNRYRVYLYNSETSNYIPLDSYM | -3.5
28 | HMTNTYEVIKNDIIFGVLPPLKKLKLLELKKKYITSVSTLREILSRLSGDGFVVSKEQKGFYVSAV | -0.0741
29 | HMGRELDLNQRVYDFIHDIADEVRTDEGTFSANQMMERFLFPGDLQSVPIGRLSGGERRRLYLLSVLMVKI | -0.0184
30 | HMATIADILAEHKDKEGPLLPVLHDVQKMFGHVSEEAMREIAQALNLTRAEVYGVVSFYHDFRKEVE | -1.46
31 | HMGVREIIVQFLEQFDKPKSVQEIVEYVLRYRNTTENSIRSTMYSGSQFRQFDNGYFGLSDKSYPNEYIYA | -1.49
32 | HMDRETEEYELIRAKLEWLYQKQTGTIRNQTAKILHHLEIAKEEGNYYLYLKIKEEAKQWLVQASMYLD | -0.638
33 | HMDTNEPFAQLQLRFTDPIQYDYEVIRPVVLFSQSVTDRSDETEMPRTTVREKARQFVTEGMLGLVDK | 0.166
34 | HMGGTATDYYNQGRTAYDVGDYNGALMNFQEAVRLDPRYGEAYYGLGKAYEALNMQNQALDAYLSAI | -0.529
35 | HMYEGNEFSSTGMFREDILAITAVHPMREDAVTELLARSNESEETLEMMIDEELLRRVAYGNHNYYMRRFR | -0.611
36 | HMSPSDLSAEAQKVYALLDGRELSFDTLVEESGFDTGSLLAILMRLEMKMLVEHGADQVYRRSG | -1.51
37 | HMNQAIIVPDVKGLPLEEATTFFENNDLRYTVIDSVYTKDVPPGAIYEMVPGAGSKVKEGRIIFVTLNAR | -0.183
38 | HMDDAIAEKTGGAVSSVNQRQAILDHIREAYGIELESLRSTDIERYLDDPEIPEPVKDILRDRLRGAK | 0.204
